In article PMC4716839 one finds binding signal data, which are given here for 4 substances.

Series [1] has as its system Dna2 D278A (nuclease-dead) (Mus musculus). Nature of the series: bead pull-down. The conditions noted are these: DNA preloaded with Rpa, EMSA: 20 mM Tris-HCl pH 8.0, 80 mM NaCl, 0.3 mM TCEP, 0.2 mg/mL BSA, 2% glycerol, on ice 30 min, 0.075 or 0.3 nM 32P-DNA, 4% native PAGE, 1x TB, 4 C, scale: % Dna2 loading relative to reaction lacking Rpa. A general note: Mobility shift assays separate free from complexed probe on a gel.

For series [2] the test system is unchanged. Kind of series: EMSA. Particulars: Kd only in figure; EMSA: 20 mM Tris-HCl pH 8.0, 80 mM NaCl, 0.3 mM TCEP, 0.2 mg/mL BSA, 2% glycerol, on ice 30 min, 0.075 or 0.3 nM 32P-DNA; 4% native PAGE, 1x TB, 4 C; scale: affinity relative to 5'(dT)24.

3'-(dT)26 overhang DNA, biotinylated yielded a binding signal in series [1] (negligible loading) of 3.

Regarding 5'(dT)6 overhang DNA, the binding signal in series [2] stood at 0.01.

For 5'(dT)8 overhang DNA, in series [2], the binding signal is 0.01.

As for 5'-(dT)26 overhang DNA, biotinylated, in series [1], the binding signal stood at 45.
